Source: FireProtDB
Where “and” joins values, the source holds several entries; their conditions need not be identical. Equal values may be shown once.

Conditions: whole UniProt chain shown; for Tm / heat capacity change of unfolding / unfolding enthalpy (van 't Hoff) / unfolding enthalpy (calorimetric): Thermal
[1] = Saccharomyces cerevisiae (strain ATCC 204508 / S288c), pH 6, Absorbance, Sodium phosphate 100 mM, reversible: yes
[2] = Saccharomyces cerevisiae (strain ATCC 204508 / S288c), pH 6, 20 °C, GdnHCl, Fluorescence, Sodium phosphate 0.1 M, reversible: yes
[3] = Saccharomyces cerevisiae (strain ATCC 204508 / S288c), pH 6, DSC, Sodium phosphate 0.1 M, KCl 0.05 M, reversible: yes (70-80%)
[4] = Saccharomyces cerevisiae (strain ATCC 204508 / S288c), pH 7.2, 20 °C, GdnHCl, Fluorescence, Sodium phosphate 0.1 M
[5] = Staphylococcus aureus, pH 7, CD, NaPP 0.1 M, reversible: yes
[6] = Staphylococcus aureus, pH 7, Fluorescence, NaPP 0.1 M, reversible: yes
[7] = Saccharomyces cerevisiae (strain ATCC 204508 / S288c), pH 8.5, DSC, Tris 0.05 M, reversible: no

B1: Glutathione S-transferase P wild type, P80031 (protein)
chain: PPYTITYFPVRGRCEAMRMLLADQDQSWKEEVVTMETWPPLKPSCLFRQLPKFQDGDLTLYQSNAILRHLGRSFGLYGKDQKEAALVDMVNDGVEDLRCKYATLIYTNYEAGKEKYVKELPEHLKPFETLLSQNQGGQAFVVGSQISFADYNLLDLLRIHQVLNPSCLDAFPLLSAYVARLSARPKIKAFLASPEHVNRPINGNGKN
- unfolding free energy (Sus scrofa, pH 6.5, 20 °C, GdnHCl, CD, Mes-NaOH 20 mM, NaCl 0.1 M): 11.6 kcal/mol and 22.5 kcal/mol

B2: Holocytochrome-c synthase wild type, P06182 (protein)
chain: MGWFWADQKTTGKDIGGAAVSSMSGCPVMHESSSSSPPSSECPVMQGDNDRINPLNNMPELAASKQPGQKMDLPVDRTISSIPKSPDSNEFWEYPSPQQMYNAMVRKGKIGGSGEVAEDAVESMVQVHNFLNEGCWQEVLEWEKPHTDESHVQPKLLKFMGKPGVLSPRARWMHLCGLLFPSHFSQELPFDRHDWIVLRGERKAEQQPPTFKEVRYVLDFYGGPDDENGMPTFHVDVRPALDSLDNAKDRMTRFLDRMISGPSSSSSAP
- Tm [1]: 46.5 °C
- heat capacity change of unfolding [1]: 2 kcal/mol/K
- unfolding enthalpy (van 't Hoff) [1]: 79 kcal/mol

B3: Cytochrome c mitochondrial import factor CYC2 wild type, P38909 (protein)
chain: MLWKNYVLSSSRITRRLHKSPRKSSFSKNFFITGCLLTVGAVSSYLTYRYTSERENKHELSPSYFVKYKISHKRDIDSSHFLLEVTPLFKQKVNIWSLMTAENLWSVEIKQPEVMVVRNYTPLPLKFNPASKEIEILKDGDNADGKLSFYIKKYENGEVARWLHHLPKGHIIEIRGPFIDYEFPHLPNELKRSRDCLYMDNRNERGNNVRENSQFIYQPYDIMMFTAGTGIVTALQLLLTESPFRGTIKLFHTDKNIKQLGPLYPILLRLQASNRVQLKIFETDRQTKQDVLKSIQKSITKPYPYKGLLPFSNVNNKNIMPVLALVCGPESYISSISGRKYDLNQGPVGGLLSKEGWNSDNVYKLS
- unfolding free energy (Saccharomyces cerevisiae (strain ATCC 204508 / S288c), pH 6, 20 °C, GdnHCl, DSC, Sodium phosphate 0.1 M, reversible: yes): 4.2 kcal/mol
- denaturant m value [2]: 3.2 kcal/mol/M
- denaturant midpoint (higher = more stable) [2]: 1.5 M
- unfolding free energy [2]: 4.9 kcal/mol
- unfolding free energy (Saccharomyces cerevisiae (strain ATCC 204508 / S288c), pH 6, 20 °C, GdnHCl, Fluorescence, Sodium phosphate 0.1 M): 3.8 kcal/mol
- Tm [3]: 79.4 °C
- unfolding enthalpy (calorimetric) [3]: 113 kcal/mol
- unfolding enthalpy (van 't Hoff) [3]: 140 kcal/mol
- denaturant midpoint (higher = more stable) [4]: 1.49 M
- unfolding free energy [4]: 3.8 kcal/mol

B4: NAD(P)H-dependent FMN reductase LOT6 wild type, Q07923 (protein)
chain: MKVGIIMGSVRAKRVCPEIAAYVKRTIENSEELIDQKLKIQVVDLQQIALPLYEDDDELIPAQIKSVDEYADSKTRSWSRIVNALDIIVFVTPQYNWGYPAALKNAIDRLYHEWHGKPALVVSYGGHGGSKCNDQLQEVLHGLKMNVIGGVAVKIPVGTIPLPEDIVPQLSVHNEEILQLLASCIETTRNK
- Tm (Saccharomyces cerevisiae (strain ATCC 204508 / S288c), pH 7.5, CD, Tris-HCl 100 mM, reversible: No): 60.2 °C

B5: D-amino-acid oxidase wild type, P80324 (protein)
chain: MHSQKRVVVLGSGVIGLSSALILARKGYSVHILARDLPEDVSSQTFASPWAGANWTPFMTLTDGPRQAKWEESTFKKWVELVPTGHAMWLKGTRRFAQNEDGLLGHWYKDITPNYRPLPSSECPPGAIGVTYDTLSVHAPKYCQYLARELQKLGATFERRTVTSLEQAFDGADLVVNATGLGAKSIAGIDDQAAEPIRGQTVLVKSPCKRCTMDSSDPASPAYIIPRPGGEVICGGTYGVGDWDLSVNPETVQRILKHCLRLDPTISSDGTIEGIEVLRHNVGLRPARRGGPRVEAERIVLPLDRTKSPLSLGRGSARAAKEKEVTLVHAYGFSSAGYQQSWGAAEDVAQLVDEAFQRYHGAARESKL
- Tm (Rhodotorula toruloides, pH 7.5, CD, Potassium phosphate 50 mM, reversible: No): 50.2 °C and 48 °C
- Tm (Rhodotorula toruloides, pH 7.5, DSC, Potassium phosphate 50 mM, reversible: No): 56.9 °C and 55.9 °C
- Tm (Rhodotorula toruloides, pH 7.5, Fluorescence, Potassium phosphate 50 mM, NH4SCN 0.5 M, reversible: No): 39 °C and 39.7 °C

B6: Tryptophan synthase alpha chain wild type, P00929 (protein)
chain: MERYENLFAQLNDRREGAFVPFVTLGDPGIEQSLKIIDTLIDAGADALELGVPFSDPLADGPTIQNANLRAFAAGVTPAQCFEMLALIREKHPTIPIGLLMYANLVFNNGIDAFYARCEQVGVDSVLVADVPVEESAPFRQAALRHNIAPIFICPPNADDDLLRQVASYGRGYTYLLSRSGVTGAENRGALPLHHLIEKLKEYHAAPALQGFGISSPEQVSAAVRAGAAGAISGSAIVKIIEKNLASPKQMLAELRSFVSAMKAASRA
- unfolding free energy (Salmonella typhimurium (strain LT2 / SGSC1412 / ATCC 700720), pH 7, 25 °C, GdnHCl, CD, Potassium phosphate 0.01 M, reversible: yes): 9.7 kcal/mol
- Tm (Salmonella typhimurium (strain LT2 / SGSC1412 / ATCC 700720), pH 7.8, Enzyme activity, sodium N/N-bis(2-hydroxyethyl)glycine 0.05 M): 46 °C
- Tm (Salmonella typhimurium (strain LT2 / SGSC1412 / ATCC 700720), pH 9, DSC, Sodium tetraborate 1 mM, reversible: yes(>70%)): 47.6 °C

B7: Dihydroneopterin aldolase wild type, P56740 (protein)
chain: MQDTIFLKGMRFYGYHGALSAENEIGQIFKVDVTLKVDLSEAGRTDNVIDTVHYGEVFEEVKSIMEGKAVNLLEHLAERIANRINSQYNRVMETKVRITKENPPIPGHYDGVGIEIVRENK
- Tm [5]: 42.5 °C
- unfolding enthalpy (van 't Hoff) [5]: 141 kcal/mol
- Tm [6]: 43.5 °C
- unfolding enthalpy (van 't Hoff) [6]: 151 kcal/mol

B8: Triosephosphate isomerase wild type, P00942 (protein)
chain: MARTFFVGGNFKLNGSKQSIKEIVERLNTASIPENVEVVICPPATYLDYSVSLVKKPQVTVGAQNAYLKASGAFTGENSVDQIKDVGAKWVILGHSERRSYFHEDDKFIADKTKFALGQGVGVILCIGETLEEKKAGKTLDVVERQLNAVLEEVKDWTNVVVAYEPVWAIGTGLAATPEDAQDIHASIRKFLASKLGDKAASELRILYGGSANGSNAVTFKDKADVDGFLVGGASLKPEFVDIINSRN
- Tm [7]: 59 °C
- heat capacity change of unfolding [7]: 11.7 kcal/mol/K
- unfolding enthalpy (calorimetric) [7]: 318 kcal/mol
